Columns and labels:
[1] = biological target: human Claudin-6 (CLDN6) (human) (UniProt P56747); assay: KinExA, HEK293T CLDN6-mGFP A11 cells detached by Versene, equilibrium curves 500pM, 10nM; printed 95% CI 3.41nM - 14.99nM
[2] = biological target: human Claudin-6 (CLDN6) (human) (UniProt P56747); assay: flow cytometry, UMUC4 cells (positive cell line); 2nd Ab only 1,114.73
[3] = biological target: human Claudin-6 (CLDN6) (human) (UniProt P56747); assay: KinExA, HEK293T CLDN6-mGFP A11 cells detached by Versene, equilibrium curves 500pM, 10nM; printed 95% CI 2.10nM - 5.42nM
[4] = biological target: human Claudin-6 (CLDN6) (human) (UniProt P56747); assay: flow cytometry, HEK293T CLDN6-mGFP A11 cells (positive artificial OE cell line); 2nd Ab only 1,242.89
[5] = biological target: human Claudin-6 (CLDN6) (human) (UniProt P56747); assay: KinExA, HEK293T CLDN6-mGFP A11 cells detached by Versene, equilibrium curves 500pM, 10nM; printed 95% CI 1.49nM - 17.05nM
[6] = biological target: human Claudin-6 (CLDN6) (human) (UniProt P56747); assay: KinExA, HEK293T CLDN6-mGFP A11 cells detached by Versene, equilibrium curves 500pM, 10nM; printed 95% CI 1.05nM - 3.38nM
[7] = biological target: human Claudin-6 (CLDN6) (human) (UniProt P56747); assay: KinExA, HEK293T CLDN6-mGFP A11 cells detached by Versene, equilibrium curves 500pM, 10nM; printed 95% CI 0.56nM - 1.66nM
[8] = biological target: human Claudin-6 (CLDN6) (human) (UniProt P56747); assay: KinExA, HEK293T CLDN6-mGFP A11 cells detached by Versene, equilibrium curves 500pM, 10nM; printed 95% CI 1.46nM - 6.47nM
[9] = biological target: human Claudin-6 (CLDN6) (human) (UniProt P56747); assay: KinExA, HEK293T CLDN6-mGFP A11 cells detached by Versene, equilibrium curves 500pM, 10nM; printed 95% CI 1.07nM - 7.74nM
[10] = biological target: human Claudin-6 (CLDN6) (human) (UniProt P56747); assay: KinExA, HEK293T CLDN6-mGFP A11 cells detached by Versene, equilibrium curves 500pM, 10nM; printed 95% CI 0.53nM - 2.03nM
[11] = biological target: human Claudin-6 (CLDN6) (human) (UniProt P56747); assay: FACS, limiting dilution, OV90 cells
[12] = biological target: human Claudin-6 (CLDN6) (human) (UniProt P56747); assay: FACS, limiting dilution, ARK2 cells
[13] = biological target: human Claudin-6 (CLDN6) (human) (UniProt P56747); assay: FACS, limiting dilution, UMUC4 cells
[14] = biological target: human Claudin-6 (CLDN6) (human) (UniProt P56747); assay: FACS, 0.3 ug Ab, ARK2 cells (2nd Ab only 1351.21)
[15] = biological target: human Claudin-6 (CLDN6) (human) (UniProt P56747); assay: FACS, 1.5 ug Ab, ARK2 cells (2nd Ab only 1351.21)
mouse Claudin-6 (CLDN6) = biological target: T1, mouse Claudin-6 (CLDN6) (mouse, UniProt Q9Z262 1-219); assay: FACS, 293T clone expressing mouse CLDN6, dose not stated (2nd Ab only 1061.72)
T1 construct: whole, on cells; GFP fusion on engineered HEK293T cells; also called Mouse CLDN6; murine CLDN6
T1 sequence (looked up): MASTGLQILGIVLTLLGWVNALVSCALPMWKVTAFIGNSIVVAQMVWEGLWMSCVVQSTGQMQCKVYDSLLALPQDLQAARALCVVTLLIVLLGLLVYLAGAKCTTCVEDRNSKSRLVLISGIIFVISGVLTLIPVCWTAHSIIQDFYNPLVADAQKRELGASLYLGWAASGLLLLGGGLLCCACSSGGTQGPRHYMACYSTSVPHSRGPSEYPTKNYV
Experimental: Two doses (1.5 μg or 0.3 μg) of the humanized antibodies were tested for binding to either human CLDN6 or murine CLDN6 which proteins were expressed by engineered 293T clones.

[16] = biological target: human Claudin-6 (CLDN6) (human) (UniProt P56747); assay: FACS, 0.3 ug Ab, 293T clone expressing human CLDN6 (2nd Ab only 768.07)
[17] = biological target: human Claudin-6 (CLDN6) (human) (UniProt P56747); assay: FACS, 1.5 ug Ab, 293T clone expressing human CLDN6 (2nd Ab only 768.07)

B1: CLDN6 ADC: AB3-7 conjugated to MC-VC-PAB-MMAE (conventional) (antibody, V domains shown)
VH: EVQLLESGGGLVQPGGSMRLSCAASGFTFSNYWMNWVRQAPGKGLEWVAQIRLKSDNYATHYADSVKGRFTISRDDSKNTVYLQMNSLRAEDTGVYYCNDGPPSGSWGQGTLLTVSS
VL: DIQMTQSPSSLSASVGDRVTITCRISENIYSYLAWYQQKPGKAPKLLVYNAKILVEGVPSRFSGSGSGTDFTLTISSLQPEDFGTYYCQHHYTVPWTFGQGTKLEIK
modifications: antibody conjugated to MC-VC-PAB-MMAE, heterogeneous drug load; attachment residues not stated
A Kd [1] of 6.68 nM and a flow cytometry signal at 1µg Ab/Sample [2] of 28800 were found for B1 in this work.

B2: CLDN6 ADC: AB3-7 conjugated to MC-VC-PAB-DXD (antibody, V domains shown)
VH: B1 VH
VL: B1 VL
modifications: antibody conjugated to MC-VC-PAB-DXD; attachment residues not stated
A Kd [3] of 3.42 nM, a flow cytometry signal at 0.1µg Ab/Sample [4] of 110000 and a flow cytometry signal at 0.1µg Ab/Sample [2] of 10800 were found for B2 in this work. It also gave a flow cytometry signal at 1µg Ab/Sample [2] of 32600.

B3: CLDN6 ADC: AB3-7 conjugated to MC-VC-PAB-MMAE (D4 technology) (antibody, V domains shown)
VH: B1 VH
VL: B1 VL
modifications: antibody conjugated to MC-VC-PAB-MMAE, mostly 4 drugs per antibody; attachment residues not stated
A Kd [5] of 5.34 nM, a flow cytometry signal at 0.1µg Ab/Sample [2] of 9450 and a flow cytometry signal at 1µg Ab/Sample [2] of 26900 were found for B3 in this work.

B4: CLDN6 ADC: AB3-7 conjugated to CL2A-SN38 (conventional) (antibody, V domains shown)
VH: B1 VH
VL: B1 VL
modifications: antibody conjugated to CL2A-SN38, heterogeneous drug load; attachment residues not stated
A Kd [6] of 1.91 nM, a flow cytometry signal at 0.1µg Ab/Sample [2] of 9990 and a flow cytometry signal at 1µg Ab/Sample [2] of 33800 were found for B4 in this work.

B5: CLDN6 ADC: AB3-7 conjugated to MC-GGFG-MMAE (D4 technology) (antibody, V domains shown)
VH: B1 VH
VL: B1 VL
modifications: antibody conjugated to MC-GGFG-MMAE, mostly 4 drugs per antibody; attachment residues not stated
A Kd [7] of 1.01 nM, a flow cytometry signal at 0.1µg Ab/Sample [2] of 8790 and a flow cytometry signal at 1µg Ab/Sample [2] of 31600 were found for B5 in this work.

B6: CLDN6 ADC: AB3-7 conjugated to MC-GGFG-DXD (antibody, V domains shown)
VH: B1 VH
VL: B1 VL
modifications: antibody conjugated to MC-GGFG-DXD; attachment residues not stated
A Kd [8] of 3.01 nM, a flow cytometry signal at 0.1µg Ab/Sample [4] of 121000 and a flow cytometry signal at 0.1µg Ab/Sample [2] of 10500 were found for B6 in this work. For the same binder, the flow cytometry signal at 1µg Ab/Sample [2] was 32800.

B7: CLDN6 ADC: AB3-7 conjugated to CL2A-SN38 (D4 technology) (antibody, V domains shown)
VH: B1 VH
VL: B1 VL
modifications: antibody conjugated to CL2A-SN38, mostly 4 drugs per antibody; attachment residues not stated
A Kd [9] of 2.87 nM, a flow cytometry signal at 0.1µg Ab/Sample [2] of 9140 and a flow cytometry signal at 1µg Ab/Sample [2] of 34600 were found for B7 in this work.

B8: AB3-7 (antibody, V domains shown)
VH: B1 VH
VL: B1 VL
notes: humanized; also called AB23; humanized AB3-7
A Kd [10] of 1.13 nM, an FACS signal at 0.32 nM [11] of 393 and an FACS signal at 1.6 nM [11] of 567 were found for B8 in this work. It also gave an FACS signal at 8 nM [11] of 565, an FACS signal at 40 nM [11] of 1140 and an FACS signal at 200 nM [11] of 2330. The FACS signal at 1000 nM [11] was 9390, the FACS signal at 0.32 nM [12] was 402 and the FACS signal at 1.6 nM [12] was 537. It also gave an FACS signal at 8 nM [12] of 991, an FACS signal at 40 nM [12] of 1640 and an FACS signal at 200 nM [12] of 3060. It also gave an FACS signal at 1000 nM [12] of 11400, an FACS signal at 0.32 nM [13] of 604 and an FACS signal at 1.6 nM [13] of 570. For the same binder, the FACS signal at 8 nM [13] was 724, the FACS signal at 40 nM [13] was 1120 and the FACS signal at 200 nM [13] was 2110. For the same binder, the FACS signal at 1000 nM [13] was 9840, the FACS fluorescence [14] was 36000 and the FACS fluorescence [15] was 90400. For the same binder, the FACS fluorescence (mouse Claudin-6 (CLDN6)) was 56100, the FACS fluorescence [16] was 106000 and the flow cytometry signal at 0.1µg Ab/Sample [4] was 107000. For the same binder, the FACS fluorescence [17] was 169000, the flow cytometry signal at 0.1µg Ab/Sample [2] was 8820 and the flow cytometry signal at 1µg Ab/Sample [2] was 27300.

From patent US20230049752A1 (University of California, published 2023)
